Target: T1, Recombinant human IZUMO1 ectodomain (residues 22-254) (human, UniProt Q8IYV9 22-254)
T1 construct: IZUMO1, human, UniProt Q8IYV9, residues 22-254 (ectodomain); The construct has an N-terminal BiP signal peptide for secretion and a thrombin cleavage site before the C-terminal 10xHis tag; In the bead assay the tag was probably cleaved, since the beads capture His tags (surmise); also called rIZUMO1; IZUMO1 (residues 22-254); source: Drosophila S2 cells, stably transfected, secreted; purified …
T1 sequence (Q8IYV9 22-254): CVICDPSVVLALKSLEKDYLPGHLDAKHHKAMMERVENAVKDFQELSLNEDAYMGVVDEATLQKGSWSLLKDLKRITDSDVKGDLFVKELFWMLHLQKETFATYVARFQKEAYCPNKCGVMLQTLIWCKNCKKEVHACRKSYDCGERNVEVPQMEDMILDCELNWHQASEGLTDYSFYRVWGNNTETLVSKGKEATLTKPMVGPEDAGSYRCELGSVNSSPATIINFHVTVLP
Assay: SPR; Nicoya Alto digital SPR, single-cycle kinetics, 25 °C; biotinylated JUNO (800 nM) immobilised as bait on streptavidin-coated carboxyl PEG cartridge; IZUMO1 as analyte at 1000, 333, 111, 37 and 12.3 nM; PBS pH 7.4, 0.05% Tween-20; technical triplicate
Conditions: both partners purified

B1: Human JUNO ectodomain (residues 20-228), biotinylated (domain or fragment, UniProt A6ND01 20-228, looked up)
chain: GDELLNICMNAKHHKRVPSPEDKLYEECIPWKDNACCTLTTSWEAHLDVSPLYNFSLFHCGLLMPGCRKHFIQAICFYECSPNLGPWIQPVGSLGWEVAPSGQGERVVNVPLCQEDCEEWWEDCRMSYTCKSNWRGGWDWSQGKNRCPKGAQCLPFSHYFPTPADLCEKTWSNSFKASPERRNSGRCLQKWFEPAQGNPNVAVARLFAS
modifications: biotin (EZ-link Sulfo-NHS-LC-Biotin, 1:1 molar ratio); glycosylated
notes: JUNO, human, UniProt A6ND01, residues 20-228 (ectodomain); The construct has an N-terminal BiP signal peptide for secretion and a thrombin cleavage site before the C-terminal 10xHis tag; also called recombinant JUNO; rhJUNO; source: Drosophila S2 cells, stably transfected, secreted; purified (Ni-NTA, SEC)
B1 gave a Kd of 37.6 nM, a koff of 0.00387 s⁻¹ and a kon of 103000 M⁻¹ s⁻¹.

Reference: PMC12961186, “JUNO-coated beads as a functional assay to capture and characterize fertilization-competent human sperm” (Human Reproduction Open, 2026)
